# Substrate: CCCCCCCCCCCCCCCC(=O)Oc1ccc([N+](=O)[O-])cc1
# Assay: p-nitrophenol release, Lineweaver-Burk
# Assay type: biochemical, Rhizopus microsporus
# Conditions: emulsified substrate, 40°C, pH 8.5, printed Km unit is a misprint, printed kcat/Km 6.22 × 10^4 M^-1 s^-1 implies mM
# From the text: p-nitrophenol release, Lineweaver-Burk on r27RCL
protein,measurement,value
"r27RCL (Rhizopus microsporus var. chinensis) (protein, proRCL gene in pPIC9K, secreted from Pichia pastoris GS115, purified on SP-Sepharose and Phenyl-Sepharose) DTETVGGMTLDLPENPPPIPATSTAPSSDSGEVVTATAAQIKELTNYAGVAATAYCRSVVPGTKWDCKQCLKYVPDGKLIKTFTSLLTDTNGFILRSDAQKTIYVTFRGTNSFRSAITDMVFTFTDYSPVKGAKVHAGFLSSYNQVVKDYFPVVQDQLTAYPDYKVIVTGHSLGGAQALLAGMDLYQREKRLSPKNLSIYTVGCPRVGNNAFAYYVDSTGIPFHRTVHKRDIVPHVPPQAFGYLHPGVESWIKEDPADVQICTSNIETKQCSNSIVPFTSIADHLTYFGINEGSCL",kcat,18.9 s⁻¹
same,kcat/Km,62200 M⁻¹ s⁻¹

# Reference: PMC3503730, “Enhanced thermostability of a Rhizopus chinensis lipase by in vivo recombination in Pichia pastoris” (Microbial Cell Factories, 2012)
